Test: yeast display, Sf9 membrane polyspecificity reagent, FACS + sequencing; frameworks hold sequencing errors
Method in brief: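 In a synthetic yeast display library (Saccharomyces cerevisiae BJ5465), nanobody expression was induced with galactose for 36–48 hours. FACS gates were set low and high (top ~1%) using anti-HA fluorescence for expression and streptavidin fluorescence for binding of the Sf9 membrane reagent. Each polyreactivity label is drawn from the gate of origin.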
With “QVQLVESGGGLGQAGGSLRLSCAASGRIFYSNVMGWYRQAHGKEREFVAAISGRTGGTYYADSVKGRFTISRDNAKNTVYLQMNSLKPEDTAVYYCAARVIYYYGSGPYDYWGQGTQVTVSS” the “polyreactivity (PSR sort gate)” value was “low polyreactivity”.
For “QVQLVESGGGLVQAGGSLRLSCAASGLTFQSYAMGWYRQAPGKERELVATISNGSSTYYADSVKGRFTISRDNAKNSVYLQMNSLKPEDTAVYYCAKDYYYSRNPLYGHDYWGQGTQVTVSS”, the “polyreactivity (PSR sort gate)” value was “low polyreactivity”.
With “QVQLVESGGGLVQAGGSLRLSCAASGFIFWDNTMGWYRQAPGKERELVAAISGGDGTYYADSVKGRFTISRDNAKNTVYLQLNSLKPEDTAVYYCNAATAEVKLYGKYDYWGQGTQVTVSS” the “polyreactivity (PSR sort gate)” value was “low polyreactivity”.
In the case of “QVQLVESGGGLVQAGGSLRLSCAASGSTFPWYVMGWYRQAPGKERELVAAISWSGGRTYYADSVKGRFTISRDNAKNTVYLQMNSLKPEDTAVYYCAADLSYWRGGHSRNYWGQGTQVTVSS”, the “polyreactivity (PSR sort gate)” value is reported as “low polyreactivity”.
For “QVQLQESGGLVQAGGLRLSSAASGSVSYQEAMGWYRQAPGKERELVATISFGANTNYADSVKGRFTISRDNAKNTVYLQMNSLKPEDTAVYYCAAESLFDDYYGYWGQGTQVTVSS”, the “polyreactivity (PSR sort gate)” value was “low polyreactivity”.
With “QVQLVESGGGLVQAGGSLRLSCAASGFTFWDYDLGWSRQATGKERELVAAISDNDGSTDYADSVKGRITISRDNVKNTVFLQMNRLKPEESAVYYCNAEIEMPSKEGDYWGLGTQVTVSS” the “polyreactivity (PSR sort gate)” value was “low polyreactivity”.
In the case of “QVQLVESGGGLVQAGGSLRLSCAASGSIFRYYAMGWYRQAPGKEREFVASITYRGGRTYYADSVKGRFTISRDNAKNTVYLQMNSLKPEDTAVYYCAARTRAGAWTSKYLDYWGQGTQVTVSS”, the “polyreactivity (PSR sort gate)” value is reported as “high polyreactivity”.
For “QVQLVESGGGLVQAGGSLRLSCAASGSTFGEYAMGWYRQAPGKERELVAGITSGGSTNYADSVKGRFTISRDNAKNTVYLQMNSLKPEDTAVYYCNARFYGSVDYWGLGTQVTVSS”, the “polyreactivity (PSR sort gate)” value was “low polyreactivity”.
For “QVHLVESGGGLVQAGGSLRLSCAASGRIFHYNTMGWYRQAPGKERELVAAITSSGGSTYYADSVKGRFTISRDNAKNTVYLQMNSLKPEDTAVYYCNAVFYRYGFKVDYWGQGTQETVSS”, the “polyreactivity (PSR sort gate)” value was “high polyreactivity”.
With “QVQLVESGGGLVQAGGSLRLSCAASGRTFPYYTMGWYRQAPGKERELVAAIDGSGDNTYYADSVKGRFTISRDYAKNTVYLQMNSLKPEDTAVYYCTAEQWGSLDYWGQGTQVTVSA” the “polyreactivity (PSR sort gate)” value was “low polyreactivity”.
With “QVQLVESGGGLVQAGGSLRLSCAASGSTFAANAMGWYRQAPGKERELVAAITSSGGSTFYADSVKGRFTISRDNAKNTVYLQMNSLKPEDTAVYYCNKDIERYVRIYDSWGQGTQVTVSS” the “polyreactivity (PSR sort gate)” value was “low polyreactivity”.
In the case of “QFQIVESGGGLVQAGGSLRLSCAASGSIFTQYAMGWYRQAPGKERELVAAITSGGSTYADSVKGRFTISRDNAMNTVYLQMKSLKPEDTAVYYCATPYSYRGVTFNYWGQGTQVTVSS”, the “polyreactivity (PSR sort gate)” value is reported as “low polyreactivity”.
In the case of “QVQLVESGGGLVQAGGSLRLSCAASGRIYYTYAMGWYRQAPGKERELVAAIRRGGSTNYADSVKGRFTISRDNAKNTVYLQMNSLKPEDTAVYYCAADVYRASFWYGYWGQGTQVTVSS”, the “polyreactivity (PSR sort gate)” value is reported as “low polyreactivity”.
With “QVQLVESGGGLVQAGGSLRLSCAASGSIFRSYALGGYRQAPGKERELVASISRRGGSTYYADSVKGRFTISRDNAKNTVYLQMNSLKPQDTAVYYCAAVRYNSRGSTTPSEMYYWGQGTQVTVSS” the “polyreactivity (PSR sort gate)” value was “low polyreactivity”.
With “QVQLEETRGGLVQAGGSLRLSCAASGSIFPYYALGWYRQAAGKERELVASINQTDGTTYYADSVKGRFTISRDNAKNNVYLQMNSLKPDDTAFYYCPADTTLQAFIPYRPIGSYDSWGQGTQVTVSS” the “polyreactivity (PSR sort gate)” value was “low polyreactivity”.
For “QVQLVESGGGLVQAGGSLRLSCAASGFIFYRYAIGWYRQEPGKERELVAAITRSGRSTYYADSVKGRFTISRDNAKNTVYLQMNSLKAEDTAVYYCAVFGSYWWRGLSEDYWGQGTQVTVSS”, the “polyreactivity (PSR sort gate)” value was “high polyreactivity”.
For “QVQLVESGGGLVQAGGSLRISCAASGSNFPYYAMGWYRQAPWQERELVAAISRGGGTTYYADSVKGRFTISRDNAKNTVYLQMISLKPEDTAVYYCAARQWRISTPYDYWGQGTQVTVSS”, the “polyreactivity (PSR sort gate)” value was “high polyreactivity”.
In the case of “QVQLVESGGGLVQAGGSLRLSCAASGLTFYLYAMGWYRQAPGKERELVAAISSSGSSTYYADSVKGRFTISRDNAKHTVYLQMNSLKPEDTAVYYCAAVASRGWGRYGYWGQGTQVTVSS”, the “polyreactivity (PSR sort gate)” value is reported as “high polyreactivity”.
In the case of “QVQLVESGGGLVQAGGSLRLSCAASGFTFTAYAMGWYRQEPGKERELVAAITGTGGSTKYADSVKGRFTISRDNATNTVYLQMNSLKPEDTAVYYCAKRYRLRGRYDYWGQGTQVTVSS”, the “polyreactivity (PSR sort gate)” value is reported as “high polyreactivity”.
For “QVQLVESGGGLVQAGGSLRLSCAASGRIFYFNAMGWNRQAPGKERELVADISSGGRTNYADSVKGRFTISRDNAKNTVYLQMNSLKPEDTAVYYCNADPYTSSGGYRGYDFDYWGQGTQVTVSS”, the “polyreactivity (PSR sort gate)” value was “low polyreactivity”.
In the case of “QVQLVESGGGLVQAGGILRLSCAASGSIFSGNDMGWYRQAPGKERELVASINRSGGSTNYAVSVKGRFTISRDNAKNTVYLQMNSLKPEDTAVYYCARDFSFLGNASARLDYDYWGQGSQVTVSS”, the “polyreactivity (PSR sort gate)” value is reported as “low polyreactivity”.
In the case of “QVQLVESGGALVQAGGSLRLSCAASGSTFNRNAMGWYRPAPGKERELVAAISSRGGSTFYADSVMGRFTISRDNATNTVYLQMNSLKPEDTAVYYCNALIVSSWVRYDYWRQGTQVTVSS”, the “polyreactivity (PSR sort gate)” value is reported as “high polyreactivity”.
With “QVQLVESGGGLVQAGGSLRLSCASSGRIFGPNAMGWYRQAPGKERELVAAITSGGRTKYADSVKGRFTISRDNAKNTVYLQMNSLKPEDTAVYYCATTAQYYWGQGTQVTVSS” the “polyreactivity (PSR sort gate)” value was “high polyreactivity”.
For “QVQLEESGGGLVQAGGSLRLSCAASGNIFLIYAMGWYRQAPRKEVEMVAAISFSDDTTDYADSVKGRFTSSRDNAKNTVYLQLNSLKQEDTAVYFCAAELYYDVANTQYDYWGQGTQVTVSS”, the “polyreactivity (PSR sort gate)” value was “high polyreactivity”.
With “QVQLVESGGGLVQAGGSLRLSCAASGSIIFLYAMGWYRQAPGKERELVASISTSGTTITYYADSVKGRFTISRDNAQNTGYLQMNSLKPEDTAVYYCAAEAYGNRDYWGQGTQVTVSS” the “polyreactivity (PSR sort gate)” value was “low polyreactivity”.
With “QVQLVESGGGLVQAGGSLRLSCAPSGSIFRGYTMGWYRQAPVKERELVAAISWSGGSTYYADSVKGRFTISRDNAKNTVYLQMNSLKPEDTAVYYCAAGDYYHRIFLWYDFWGQGTQVNVSS” the “polyreactivity (PSR sort gate)” value was “low polyreactivity”.
In the case of “QVQLVESGGGIVQAGGSLRLSCAASGRTFSPYAMGWYRQAPGKERELVAGITWSGGSTYYSDSVKGRFTISRDYAKNPVYFQMNFLKPEDTAVYYCNAVGTYAYYCSFAYDYWGQGTQVNVSS”, the “polyreactivity (PSR sort gate)” value is reported as “high polyreactivity”.
With “QVQLVESGGGLVHAGGSLRLRCAASGRTFYFSNMGWYRQAPGKQRELVATIRWSAGSTYYADSVKGRFTISRDNAKNSVYLQMKSLKPEDTAVYYCNGDPYVYSSWQYGYWGQGTQVTVSS” the “polyreactivity (PSR sort gate)” value was “high polyreactivity”.
For “QVHLVESGGGLVQAGVSLRLSCAASGSTFGHNAMVWYRQAPGKERELVAAISSIGGSTNYADSVKGRFTISRDNAKNTVYFQMNSLKPEDTAVYYCNAGPGLRYVSPYDYWGQGTQVTVSS”, the “polyreactivity (PSR sort gate)” value was “low polyreactivity”.
With “QVQLVESGGGLVQAGGSLRLSCAASGSIFSYNAMGGYRQAPGKERELVAGITSGASTNYADSVKGRFTISRDNAKNTVYLQMNSLKPEDTAVYYCNADDIFRPRDDLYDYWGQGTQVTVSS” the “polyreactivity (PSR sort gate)” value was “low polyreactivity”.
For “QVQIVESGAGLVQAGGSLSLSCAASGSIFHDNAMGWYRQAPGKERELVAAINRGGSRHYADSVKGRFTISRDNAKNTVYFQMNSLKPEDTAVYYCAADGIRPEVGYWGQGTQVTVSS”, the “polyreactivity (PSR sort gate)” value was “low polyreactivity”.
In the case of “QLQLLESGGGLDQPGGSLRLSSAASGRTFYRYVMGWYRQEPGKERELVAAIRSSGTTTYYADSVKGRFTISRDNAKNTVYIKMNCVIPEDTAVYYCARDSYRGYVYSLDYWGQGTQVTVSS”, the “polyreactivity (PSR sort gate)” value is reported as “high polyreactivity”.
With “QVQLVESGGGLVQAGGSLRLSCAASGRTFENYVMGWYRQAPGKERELVPAITVSGGSTYYADSVKGRFTISRDIAKNTVYLQMNSLKPEDTAVYYCAADPNVLFSQKYYEPNDYWGQGTQVTVSS” the “polyreactivity (PSR sort gate)” value was “low polyreactivity”.
For “QVQLVESGGGLVQSGGSLRLSCAASGRIIIRYAMGWYIQEPGKERELVAAISKNGGTTYYADSVKGRFTISRDNAKYTVYLQMNSLKPVDTAVYYGAKRLVSRGRTYAYPEYDYWGQGTQVTVSS”, the “polyreactivity (PSR sort gate)” value was “high polyreactivity”.
In the case of “QVQLVESGGGLVQAGGSLRLSCAASGLTFADNTMGWYRQAPGKERELVAAIDWSGGGTDYADSVKGRFTISRDNAKNTVYLQMNSLKPEDTAVYYCNAERTSWEDDYWGQGTQVTVSS”, the “polyreactivity (PSR sort gate)” value is reported as “low polyreactivity”.
With “QVQLVESGGGLVQAGGSLRLSCAASGSTFWLYAMGWYRQAPGKERELVAAIRSGDRTNYADSEKGRFTISRDNAKNTVYLQMNSLKPEDTAVYYCAAVAYLNWTPHYYWGQRTQVTVSS” the “polyreactivity (PSR sort gate)” value was “low polyreactivity”.
For “QVQLVESGGGLVQAGGSLGLSCAASGFTFTYYAMGWYRQAPGKERELVASISWRGGSTYADSVKGRFTISRDNAQNTVYLQMNSLTPEDTAVYYCAADGYSYGNYIYDYWGQGTQVTVSS”, the “polyreactivity (PSR sort gate)” value was “low polyreactivity”.
In the case of “QVQLVESGGGLVQAGGSLRLSCAASGITFVGNARGWYRQAPGKERELVAGIRGNGGSTYYADSVKGRFTISRDNAKNTVYLQMNSLKPEDTAVYYCAAAAYYADFDYWGQGTQVTVSS”, the “polyreactivity (PSR sort gate)” value is reported as “low polyreactivity”.
With “QVQLVESGGGLVQAGGSLRLSCAASGSTFSSNAMGWYRQAPGKERELVAAISKRGGRTYYADSVKGRFTISRDNAKNTVYLQMNSLKPEDTAVYYCAKDYSSAVDYWGQGTQVTVSS” the “polyreactivity (PSR sort gate)” value was “high polyreactivity”.
For “QVQLVESGGGLVQAGGSLRLSCAASGRIFVVYAMGWYRQAPGKERELVAAIRSGGSTNYADSVKGRFTISRDNAKNTVYLQMNSLKPEDTAVYYCADCKWHSAYDYWGQGTQVTVSS”, the “polyreactivity (PSR sort gate)” value was “high polyreactivity”.
For “QVQLVESGRGLVQAGGSLRLSCAASGRIFGVYGRGWYRQAPGKERELVAAISWSGATTYYADSVKGRFTISRDNAKNTVYLQMHSLKPEDTAVYYCAADFGWFYDGVAVWFIRILGDYWGQGTQVTVSS”, the “polyreactivity (PSR sort gate)” value was “low polyreactivity”.
For “QFQLVESGGGLVQAGGSLRLSCAASGIIFVSYAMGGYIQAPGKETEFVAGINWNGGSTYYADSVKGRFTISRDNAKNTVYLQMNSLKPEDTAVYYCNAENYRVRQRSSVKYDYWGHGTQVTVSS”, the “polyreactivity (PSR sort gate)” value was “low polyreactivity”.
For “QVQLLESGGGLVQAGGSLRLSFASSGSIFHPYAMGWYRQAPGKERELVAAITSGGSTYYADSVKGLFTISRDNAKNTDLLQMNSLNPEDNAVYYCAKDFDIYYSKYDYWGQGTQVTVSS”, the “polyreactivity (PSR sort gate)” value was “low polyreactivity”.

Reference: the nanobody polyreactivity screen of Harvey et al. (2022)
